# Measurements published in US20240343799A1 (Innovent, published 2024).
# T1: CD79b on the surface of B-cell non-Hodgkin's lymphoma cells (human, UniProt P40259 29-229)
# T1 construct: whole, on cells; Endogenous CD79b of the cell lines; on cells it stands in the B cell receptor complex with CD79a; also called CD79b on Ramos cells; CD79b on BJAB cells
# T1 sequence (looked up): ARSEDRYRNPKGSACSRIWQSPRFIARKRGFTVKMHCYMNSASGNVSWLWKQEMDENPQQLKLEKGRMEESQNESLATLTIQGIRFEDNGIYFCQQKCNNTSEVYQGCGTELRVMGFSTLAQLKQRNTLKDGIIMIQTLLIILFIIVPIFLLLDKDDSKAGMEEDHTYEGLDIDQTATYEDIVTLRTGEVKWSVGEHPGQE
# T2: monkey CD3E & CD3G-biotin (Sino biological) (cynomolgus monkey, UniProt Q95LI5 22-117; Q95LI7 23-113, limits assumed)
# T2 construct: also called Cyno CD3E&G; monkey CD3E&G
# T2 sequence (looked up) 1: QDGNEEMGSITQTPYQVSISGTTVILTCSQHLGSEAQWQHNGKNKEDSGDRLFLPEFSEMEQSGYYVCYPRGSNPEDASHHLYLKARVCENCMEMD
# T2 sequence (looked up) 2: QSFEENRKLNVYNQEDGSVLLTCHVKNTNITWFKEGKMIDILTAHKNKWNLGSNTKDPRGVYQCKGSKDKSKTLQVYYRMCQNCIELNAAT
# T3: human CD79b-his (Sino biological) (human, UniProt P40259 29-159)
# T3 construct: Amine-coupled to the Biacore chip (about 50 RU); not shown: His tag
# T3 sequence (looked up): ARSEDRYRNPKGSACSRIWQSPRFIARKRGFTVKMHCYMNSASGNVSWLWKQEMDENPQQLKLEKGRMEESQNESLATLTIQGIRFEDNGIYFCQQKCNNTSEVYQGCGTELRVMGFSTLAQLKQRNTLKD
# Experiments:
# [1] = molecular target: T1, CD79b on the surface of B-cell …; assay: flow cytometry on BJAB cells, goat anti-human IgG PE
# Protocol: (§1) The binding ability of the CD79b/CD3 bispecific antibodies for CD79b-positive B-cell non-Hodgkin's lymphoma cell lines was detected by flow cytometry.
# (§2) BJAB (AddexBio, USA, Cat #C0003016) and WSU-DLCL2 (Nanjing Kebai Biotechnology Co., Ltd., Cat #CBP60273) were cultured and passaged according to the conventional procedures. Cells were counted after centrifugation and resuspension, adjusted to a density of 4×10⁶ cells/mL, poured into a loading tank, and seeded to a 96-well plate at 50 μL/well using a multichannel pipettor. 50 μL of the antibody sample diluted in gradient was added to the 50 μL of cells in each well, and the mixture was then incubated in an incubator at 5% CO₂ and 37° C. for 30 min. The mixture was centrifuged at 400 g for 5 min, then 200 μL of PBS was added, and the resulting mixture was centrifuged at 400 g for 5 min. This procedure was repeated 3 times. Goat anti-human IgG PE (1:200) was added, and the mixture was incubated for 30 min in the dark at room temperature. The mixture was washed with 200 μL of PBS twice, centrifuged, and then resuspended in 100 μL of PBS, and the values were read using a flow cytometer. The values were fitted to obtain a curve and EC₅₀ values were calculated.
# [2] = molecular target: T4, human CD3E & CD3G-biotin (Sino biological) (human, UniProt P07766 23-126; P09693 23-116, limits assumed); assay: SPR (Biacore T200), biotinylated CD3E&CD3G on streptavidin chip, antibody injected
# T4 construct: also called Human CD3E&G
# Protocol: (§3) The binding kinetics of exemplary anti-CD79b/CD3 antibodies of the present invention for human CD79b, human CD3, and cynomolgus monkey CD3 were determined using surface plasmon resonance (Biacore T200). (1) Affinity assay of antibodies for human CD79b-his (Sino biological): 50 mM N-hydroxysuccinimide (NHS) and 200 mM 1-ethyl-3-(3-dimethylaminopropyl) carbodiimide hydrochloride (EDC) were freshly mixed and activated for 420 s at a flow rate of 10 μL/min. Human CD79b-His antigen was then diluted in 10 mM Acetate (pH 5.0), and after dilution to a concentration of 1 μg/mL, the antigen solution was subjected to coupling and the value was approximately 50 RU. Then 1 M ethanolamine was injected at a flow rate of 10 μL/min for 420 s to block the remaining activation sites. The buffer used in the experiment was HBS-EP+ solution at pH 7.4, and under a high performance mode, the antibodies obtained after 2-fold gradient dilution (0-80 nM) were each injected, according to an ascending order based on concentrations, into the channels 1, 2, 3 and 4 of the chip at a flow rate of 30 μL/min, wherein one cycle was used for determination of one concentration, the binding time was 180 s, and the dissociation time was 600 s. (2) Affinity assay of antibodies for human CD3E & CD3G-biotin (Sino biological) and monkey CD3E & CD3G-biotin (Sino biological): 50 mM NHS and 200 mM EDC were freshly mixed and activated for 420 s at a flow rate of 10 μL/min. Streptavidin (Thermo Fisher scientific) protein was then diluted in 10 mM Acetate (pH 4.5) and after dilution to a concentration of 10 μg/mL, the antigen solution was subjected to coupling and the value was approximately 3000 RU. Then 1 M ethanolamine was injected at a flow rate of 10 μL/min for 420 s to block the remaining activation sites. Human CD3E & CD3G-biotin and monkey CD3E & CD3G-biotin proteins were each immobilized on the chip channels coupled with Streptavidin protein. The antibodies (0-16 nM or 0-40 nM or 0-200 nM) obtained after 2-fold gradient dilution were each injected, according to an ascending order based on concentrations, into the channels 1, 2, 3 and 4 of the chip at a flow rate of 30 μL/min, wherein one cycle was used for determination of one concentration, the binding time was 180 s, and the dissociation time was 300 s.
# [3] = molecular target: T1, CD79b on the surface of B-cell …; assay: flow cytometry on WSU-DLCL2 cells, goat anti-human IgG PE
# Protocol: as §1, §2
# [4] = molecular target: T2, monkey CD3E & CD3G-biotin (Sino …); assay: SPR (Biacore T200), biotinylated monkey CD3E&CD3G on streptavidin chip, antibody injected
# Protocol: as §3
# [5] = molecular target: T3, human CD79b-his (Sino biological); assay: SPR (Biacore T200), CD79b-His coupled to chip, antibody injected
# Protocol: as §3
# T4 sequence (P07766 23-126 limits assumed, chain 1 of 2): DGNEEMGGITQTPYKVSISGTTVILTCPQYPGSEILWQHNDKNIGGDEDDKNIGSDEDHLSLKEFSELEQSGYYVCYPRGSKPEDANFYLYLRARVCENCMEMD
# T4 sequence (P09693 23-116 limits assumed, chain 2 of 2): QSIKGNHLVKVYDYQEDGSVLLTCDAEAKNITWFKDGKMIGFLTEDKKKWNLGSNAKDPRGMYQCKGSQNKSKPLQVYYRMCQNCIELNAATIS
Binder,EC50 (read off the curve) [1] [nM],Kd [2] [nM],koff [2] [s⁻¹],kon [2] [M⁻¹ s⁻¹],EC50 (read off the curve) [3] [nM],Kd [4] [nM],koff [4] [s⁻¹],kon [4] [M⁻¹ s⁻¹],Kd [5] [nM],koff [5] [s⁻¹],kon [5] [M⁻¹ s⁻¹]
"38D9B3.11/sp34.87 (bispecific antibody, human IgG1, kappa, lambda, L234A L235A, 1+1 anti-CD79b x CD3 bispecific, IgG1 Fc with knob-in-hole and L234A/L235A; also called 38D9B3.11 x HzSP34.87) heavy 1: not shown light 1: EIVLTQSPATLSLSPGERATLSCKASQSVDHDVDSYMDWYQQKPGQAPRLLIYSASNLESGIPARFSGSGSGTDFTLTISSLEPEDFAVYYCQQINEYPYTFGGGTKVEIKRTVAAPSVFIFPPSDEQLKSGTASVVCLLNNFYPREAKVQWKVDNALQSGNSQESVTEQDSKDSTYSLSSTLTLSKADYEKHKVYACEVTHQGLSSPVTKSFNRGEC heavy 2: not shown light 2: QAVVTQEPSLTVSPGGTVTLTCRSSTGAVTTSNYANWVQQKPGQAPRGLIGGTNKRAPGVPARFSGSLLGDKAALTLLGAQPEDEAEYYCALWYSNLWVFGQGTKLTVLGQPKAAPSVTLFPPSSEELQANKATLVCLISDFYPGAVTVAWKADSSPVKAGVETTTPSKQSNNKYAASSYLSLTPEQWKSHRSYSCQVTHEGSTVEKTVAPTECS",~5,119,0.0368,310000,~9,253,0.0275,109000,1.66,0.00031,187000
"11G10.9.p1/sp34.87 (bispecific antibody, human IgG1, kappa, lambda, L234A L235A, also called 11G10.9.p1 x HzSP34.87) heavy 1: not shown light 1: DIVMTQTPLSLSVTPGQPASISCKSSQSLLDSEGKTYLNWLLQKPGQSPQSLIYLVSKLDSGVPDRFSGSGSGTDFTLKISRVEAEDVGVYYCWQGTHFPLTFGGGTKVEIKRTVAAPSVFIFPPSDEQLKSGTASVVCLLNNFYPREAKVQWKVDNALQSGNSQESVTEQDSKDSTYSLSSTLTLSKADYEKHKVYACEVTHQGLSSPVTKSFNRGEC heavy 2: not shown light 2: QAVVTQEPSLTVSPGGTVTLTCRSSTGAVTTSNYANWVQQKPGQAPRGLIGGTNKRAPGVPARFSGSLLGDKAALTLLGAQPEDEAEYYCALWYSNLWVFGQGTKLTVLGQPKAAPSVTLFPPSSEELQANKATLVCLISDFYPGAVTVAWKADSSPVKAGVETTTPSKQSNNKYAASSYLSLTPEQWKSHRSYSCQVTHEGSTVEKTVAPTECS",~20,107,0.0331,308000,~30,202,0.0336,167000,4.5,0.00208,461000
"34F1.14/sp34.87 (bispecific antibody, human IgG1, kappa, lambda, L234A L235A, also called 34F1.14 x HzSP34.87) heavy 1: not shown light 1: DVVMTQSPLSLPVTLGQPASISCKSSLSLLDSEGKTYLNWFQQRPGQSPRPLISLVSKLDSGVPDRFSGSGSGTDFTLKISRVEAEDVGVYYCWQGTHFPLTFGGGTKVEIKRTVAAPSVFIFPPSDEQLKSGTASVVCLLNNFYPREAKVQWKVDNALQSGNSQESVTEQDSKDSTYSLSSTLTLSKADYEKHKVYACEVTHQGLSSPVTKSFNRGEC heavy 2: not shown light 2: QAVVTQEPSLTVSPGGTVTLTCRSSTGAVTTSNYANWVQQKPGQAPRGLIGGTNKRAPGVPARFSGSLLGDKAALTLLGAQPEDEAEYYCALWYSNLWVFGQGTKLTVLGQPKAAPSVTLFPPSSEELQANKATLVCLISDFYPGAVTVAWKADSSPVKAGVETTTPSKQSNNKYAASSYLSLTPEQWKSHRSYSCQVTHEGSTVEKTVAPTECS",–,92,0.0315,342000,–,180,0.032,178000,7.03,0.00207,295000
